This passage reports Kd results from patent US20240374746A1 (TALLAC THERAPEUTICS, published 2024).

Some results are limits rather than exact numbers.

The target in test [1] is T1, human SIRP-α V1 D1 domain-6His (human, UniProt P78324 31-149).
T1 construct: also called Analyte A
Briefly: SPR (Biacore 8K), conjugate captured on Protein A chip, His-tagged SIRP-α as analyte, single cycle kinetics; pH 6.0, 25 C. On the procedure:
(§1) Binding of the anti-SIRP-α antibody conjugate was measured using a Biacore 8K high throughput, high-sensitivity SPR system (Cytiva, Global Life Sciences Solutions USA LLC, Marlborough, MA) equipped with S-type sensor chips. The interaction of the conjugate with SIRP-α was analyzed by flowing His-tagged SIRP-α over Protein A captured anti-SIRP-α antibody conjugate on a Biacore Series S Protein A Sensor Chip. The anti-SIRP-α antibody portion of the conjugate comprised a heavy chain comprising the sequence of SEQ ID NO:66 and a light chain comprising the sequence of SEQ ID NO:73 conjugated to CpG oligo 7-7 (SEQ ID NO: 35).
(§2) All SIRP-α analytes were injected in single cycle kinetics mode at nominal starting concentrations of 100 nM with 3-fold serial dilutions with the exception of rat SIRP-α. Higher starting concentration of 300 nM was used for assessing binding to rat SIRP-α at pH 7.4. Association times were monitored for 120 s, and dissociation times were monitored 600 s at 30 μL/min flow rate. The surfaces were regenerated with 75 mM phosphoric acid at pH1.65 for two pulses of 15 s at 30 μL/min flow rate. Experiments were done at either 25° C. or 37° C. and at pH 6.0 or 7.4. Assay buffers were 1×PBS 0.01% Tween-20 at pH 6.0 with and 1×HBS-EP+ (10 mM HEPES, pH7.4, 150 mM NaCl, 3 mM EDTA, 0.05% (v/v) Surfactant P20) at pH 7.4. All data points were collected in duplicate or greater.
(§3) The data were processed and analyzed with Biacore 8K Evaluation Software Version 4.0.8.20368 (Cytiva, Global Life Sciences Solutions USA LLC, Marlborough, MA). Reference responses from flow cell 1 were subtracted from the active responses from flow cell 2 to obtain the subtracted data (2-1). The responses from the nearest buffer blank injection were then subtracted from the reference subtracted data (2-1) to yield double-referenced data. These double-reference data were fit to a simple 1:1 Langmuir binding model with mass transport to determine the apparent association (ka) and dissociation rate constants (kd). The apparent equilibrium dissociation constant or affinity constant was then calculated based on their ratio as (KD=kd/ka).
(In SPR one partner is held on a chip, and binding of the other changes the refractive index at the surface.)

Test [2] concerns the target T2, human SIRP-α V2 D1 domain-6His (human).
T2 construct: also called Analyte B
The description is as above. On the procedure: as §1, §2, §3

Test [3] addresses T3, Cyno SIRP-α V4 D1 domain-6His-Avi (cynomolgus, limits assumed).
T3 construct: also called Analyte C
T3 chain: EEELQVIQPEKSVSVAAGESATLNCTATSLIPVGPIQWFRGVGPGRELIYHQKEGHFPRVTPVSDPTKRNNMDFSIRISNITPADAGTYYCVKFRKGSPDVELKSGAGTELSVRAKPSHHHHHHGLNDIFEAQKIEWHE
The test is described as above. On the procedure: as §1, §2, §3

Test [4] concerns the target T4, Mouse SIRP-α normal D1 domain-6His (mouse).
T4 construct: also called Analyte D
T4 chain: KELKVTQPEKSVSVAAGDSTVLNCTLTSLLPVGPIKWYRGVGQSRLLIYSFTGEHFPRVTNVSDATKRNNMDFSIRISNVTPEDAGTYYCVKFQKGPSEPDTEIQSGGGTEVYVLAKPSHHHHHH
The test is described as above. The protocol:
as §1, §2, §3

Test [5] addresses T5, Rat SIRP-α K32-N373-ECD-6His (rat, UniProt P97710 32-373).
T5 construct: K32-N373 in the name counts on the natural rat protein; also called Analyte E; Rat SIRPα-ECD
T5 sequence: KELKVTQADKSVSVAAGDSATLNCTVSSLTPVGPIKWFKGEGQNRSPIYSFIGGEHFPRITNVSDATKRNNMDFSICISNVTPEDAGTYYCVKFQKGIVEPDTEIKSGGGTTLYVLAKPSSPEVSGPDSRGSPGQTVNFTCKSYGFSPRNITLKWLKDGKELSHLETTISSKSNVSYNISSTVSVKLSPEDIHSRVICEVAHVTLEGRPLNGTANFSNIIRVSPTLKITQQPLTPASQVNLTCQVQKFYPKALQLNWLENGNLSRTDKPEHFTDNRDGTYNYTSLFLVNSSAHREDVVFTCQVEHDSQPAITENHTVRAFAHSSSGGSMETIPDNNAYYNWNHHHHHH
Described as above. The protocol:
as §1, §2, §3

In test [6] the target is T1, human SIRP-α V1 D1 domain-6His. Briefly: SPR (Biacore 8K), conjugate captured on Protein A chip, His-tagged SIRP-α as analyte, single cycle kinetics; pH 6.0, 37 C. On the procedure: as §1, §2, §3
The target in test [7] is T2, human SIRP-α V2 D1 domain-6His. The description is as above. On the procedure:
as §1, §2, §3

In test [8] the target is T3, Cyno SIRP-α V4 D1 domain-6His-Avi. The description is as above. On the procedure:
as §1, §2, §3

The target of test [9] is T4, Mouse SIRP-α normal D1 domain-6His. The description is as above. On the procedure:
as §1, §2, §3

The target of test [10] is T5, Rat SIRP-α K32-N373-ECD-6His. The test is described as above. The protocol:
as §1, §2, §3

Test [11] has as its target T1, human SIRP-α V1 D1 domain-6His. Briefly: SPR (Biacore 8K), conjugate captured on Protein A chip, His-tagged SIRP-α as analyte, single cycle kinetics; pH 7.4, 25 C. The protocol: as §1, §2, §3
In test [12] the target is T2, human SIRP-α V2 D1 domain-6His. The test is described as above. The protocol: as §1, §2, §3
Test [13] has as its target T3, Cyno SIRP-α V4 D1 domain-6His-Avi. The test is described as above. The protocol: as §1, §2, §3
The target of test [14] is T4, Mouse SIRP-α normal D1 domain-6His. Described as above. On the procedure: as §1, §2, §3
Test [15] addresses T5, Rat SIRP-α K32-N373-ECD-6His. The description is as above. On the procedure:
as §1, §2, §3

Test [16] deals with T1, human SIRP-α V1 D1 domain-6His. Briefly: SPR (Biacore 8K), conjugate captured on Protein A chip, His-tagged SIRP-α as analyte, single cycle kinetics; pH 7.4, 37 C. On the procedure:
as §1, §2, §3

The target in test [17] is T2, human SIRP-α V2 D1 domain-6His. The description is as above. On the procedure:
as §1, §2, §3

For test [18], the target named is T3, Cyno SIRP-α V4 D1 domain-6His-Avi. The description is as above. The protocol: as §1, §2, §3
For test [19], the target named is T4, Mouse SIRP-α normal D1 domain-6His. Described as above. The protocol: as §1, §2, §3
Test [20] deals with T5, Rat SIRP-α K32-N373-ECD-6His. Described as above. On the procedure:
as §1, §2, §3

T1 sequence (P78324 other isoform, or with tags, fused parts or gaps limits assumed): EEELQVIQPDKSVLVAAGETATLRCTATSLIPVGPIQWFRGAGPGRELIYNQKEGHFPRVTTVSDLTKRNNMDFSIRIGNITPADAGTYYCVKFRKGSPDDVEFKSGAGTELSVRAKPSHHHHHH
T2 sequence (chain, as listed by the source limits assumed): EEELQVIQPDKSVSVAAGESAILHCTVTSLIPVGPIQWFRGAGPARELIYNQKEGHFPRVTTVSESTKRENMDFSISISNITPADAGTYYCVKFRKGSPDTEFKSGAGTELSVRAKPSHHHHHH

B1: anti-SIRP-α antibody-CpG oligonucleotide conjugate (human IgG4 heavy chain SEQ ID NO:66, light chain SEQ ID NO:73, conjugated to CpG oligo 7-7, SEQ ID NO:35) (antibody, V domains shown)
VH: EVQLVESGGGVVQPGGSLRLSCAASGFTFSSNAMSWVRQAPGKGLEWVAGISAGGSDTYYPASVKGRFTISRDNSKNTLYLQMNSLRAEDTAVYYCARETWNHLFDYWGQGTLVTVSS
VL: SYELTQPPSVSVSPGQTARITCSGGSYSSYYYAWYQQKPGQAPVTLIYSDDKRPSNIPERFSGSSSGTTVTLTISGVQAEDEADYYCGGYDQSSYTNPFGGGTKLTVLG
modifications: CpG oligo 7-7 (SEQ ID NO:35) with PEG linker attached by an amide bond to the glutamine of the C-terminal Q-tag RPQGFGPP; the general method pools DAR1 fractions (one CpG per antibody)
notes: The oligonucleotide payload is not a protein; also called anti-SIRP-α antibody conjugate; anti-hIgG4 SIRP-α conjugate
Broadly, the Kd is a measure of binding affinity in units of concentration. A low value points to tighter binding. B1: the Kd is under 1 pM in test [1]; under 1 pM in test [2]; 50 pM in [3]; under 1 pM in test [4]; 3800 pM in test [5]; under 1 pM in test [6]. Further, the Kd was found to be 10 pM in [7]; 100 pM in [8]; 70 pM in test [9]; 8500 pM in test [10]; 100 pM in test [11]; 230 pM in test [12]. For the same molecule, the Kd in [13] worked out at 450 pM; in [14], 690 pM; in test [15], 61400 pM; in test [16], 280 pM; in [17], 510 pM; in [18] it was 710 pM. For the same molecule, the Kd is 1630 pM in [19] and 175000 pM in [20].
